Assay results from patent publication US20090317364A1, “NOVEL COMPOSITIONS FOR PREVENTION AND TREATMENT OF MASTITIS AND METRITIS” (priority 2006, published 2009).

Key:
Staphylococcus. aureus [1] = assay: Lab trials 2a (in vitro) for synergy, components added in wells for diffusion; format: cell-based
Text: a) Lab trials 2a (in vitro) for synergy.

Staphylococcus. aureus [2] = assay: Lab trials 2b (in vitro) for synergy, components added on top of the culture; format: cell-based
Text: b) Lab trials 2b (in vitro) for synergy.

B1: Serratiopeptidase (protein, UniProt P07268 17-487, looked up)
Serralysin: AATTGYDAVDDLLHYHERGNGIQINGKDSFSNEQAGLFITRENQTWNGYKVFGQPVKLTFSFPDYKFSSTNVAGDTGLSKFSAEQQQQAKLSLQSWADVANITFTEVAAGQKANITFGNYSQDRPGHYDYGTQAYAFLPNTIWQGQDLGGQTWYNVNQSNVKHPATEDYGRQTFTHEIGHALGLSHPGDYNAGEGNPTYRDVTYAEDTRQFSLMSYWSETNTGGDNGGHYAAAPLLDDIAAIQHLYGANLSTRTGDTVYGFNSNTGRDFLSTTSNSQKVIFAAWDAGGNDTFDFSGYTANQRINLNEKSFSDVGGLKGNVSIAAGVTIENAIGGSGNDVIVGNAANNVLKGGAGNDVLFGGGGADELWGGAGKDIFVFSAASDSAPGASDWIRDFQKGIDKIDLSFFNKEAQSSDFIHFVDHFSGAAGEALLSYNASNNVTDLSVNIGGHQAPDFLVKIVGQVDVATDFIV
notes: proteolytic enzyme isolated from the non-pathogenic Enterobacteria Serratia E15, CAS 37312-62-2
Staphylococcus. aureus [1]
  Inhibition zone diameter In cm for Staphylococcus. aureus: 0.5 cm
Staphylococcus. aureus [2]
  Inhibition zone In diameter cm for Staphylococcus. aureus: 0.61 cm
